Patent US20110263485A1, “Bifunctional Griffithsin Analogs” (priority 2009, published 2011)

How the values were obtained:
Test in all cases: cell-based or functional assay
[1] = target: HIV-1 NL4-3 (CXCR4-tropic) env (gp120 and gp41) (HIV-1 strain NL4-3)
[2] = target: HIV-1 Ba-L (R5) env (gp120 and gp41) (HIV-1 strain Ba-L)
[3] = target: HIV-1 92HT599 (CXCR4-tropic) env (gp120 and gp41) (HIV-1 strain 92HT599)
[4] = target: HIV-1 ADA (R5) env (gp120 and gp41) (HIV-1 strain ADA)
[5] = target: HIV-1 91US005 (R5) env (gp120 and gp41) (HIV-1 strain 91US005)
[6] = target: HIV-1 HXB2 env (X4) (gp120 and gp41) (HIV-1 strain HXB2) (UniProt P04578)
[7] = target: HIV-1 JRFL (R5) env (gp120 and gp41) (HIV-1 strain JRFL)
[8] = target: HIV-1 IIIB (X4) env (gp120 and gp41) (HIV-1 strain IIIB)

Chain of Griffithsin (P84801 whole entry X31A): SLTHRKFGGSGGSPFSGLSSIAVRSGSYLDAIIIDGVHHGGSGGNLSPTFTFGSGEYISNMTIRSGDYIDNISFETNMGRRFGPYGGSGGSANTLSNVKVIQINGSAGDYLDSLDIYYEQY

## Griffithsin (from UniProt P84801 1-121)
[1]
  Inhibition of HIV-1 Replication in PBMCs, NL4-3 (CXCR4-tropic), IC50: 0.17 nM
  Inhibition of HIV-1 Replication in PBMCs, NL4-3 (CXCR4-tropic), IC90: 0.725 nM
[2]
  Inhibition of HIV virus, Ba-L (R5) in MAGI cells, IC50: 0.04 nM
  Inhibition of HIV virus, Ba-L (R5) in MAGI cells, IC90: 0.515 nM
  Inhibition of HIV virus, Ba-L (R5) in PBMC, IC50: 0.28 nM
  Inhibition of HIV virus, Ba-L (R5) in PBMC, IC90: 0.76 nM
[3]
  Inhibition of HIV-1 Replication in PBMCs, 92HT599 (CXCR4-tropic), IC50: 0.74 nM
  Inhibition of HIV-1 Replication in PBMCs, 92HT599 (CXCR4-tropic), IC90: 1.86 nM
[4]
  Inhibition of HIV single round pseudovirus in TZM-bl cells, ADA (R5), IC50: 0.008 nM
  Inhibition of HIV single round pseudovirus in TZM-bl cells, ADA (R5), IC90: 0.164 nM
  Inhibition of HIV virus, ADA (R5) in MAGI cells, IC50: 0.03 nM
  Inhibition of HIV virus, ADA (R5) in MAGI cells, IC90: 0.45 nM
  R5 fusion assay IC50: 1.3 nM
  R5 fusion with competition IC50: 1.73 nM
  R5 fusion with wash-out on ADA cells IC50: 4.28 nM
  R5 fusion with wash-out on P5L cells IC50: 7.34 nM
[5]
  Inhibition of HIV virus, 91US005 (R5) in PBMC, IC50: 0.16 nM
  Inhibition of HIV virus, 91US005 (R5) in PBMC, IC90: 0.51 nM
  Inhibition of HIV-1 Replication in PBMCs, 91US005 (CCR5-tropic), IC50: 0.28 nM
  Inhibition of HIV-1 Replication in PBMCs, 91US005 (CCR5-tropic), IC90: 0.76 nM
[6]
  X4 fusion assay IC50: 0.468 nM
[7]
  Inhibition of HIV single round pseudovirus in TZM-bl cells, JRFL (R5), IC50: 0.035 nM
  Inhibition of HIV single round pseudovirus in TZM-bl cells, JRFL (R5), IC90: 1.25 nM
[8]
  Inhibition of HIV virus, IIIB (X4) in MAGI cells, IC50: 0.145 nM
  Inhibition of HIV virus, IIIB (X4) in MAGI cells, IC90: 0.89 nM
